Source: patent US10752676B2 (UCB Biopharma SPRL, priority 2011, dated 2020)

Assays:
[1] = system: Clostridium difficile strain ATCC43596; assay: Anti-C. difficile toxin Mab hamster infection study; type: in vivo, Golden Syrian hamsters; settings: 5 mg/kg twice a day for 5 days (p.o.) on days 1-5
Description: The hamster infection study was performed by Ricerca Biosciences LLC, Cleveland, Ohio, USA. The study protocol was approved by the Ricerca IACUC committee. Active and control components (composition and dose) were blinded to Ricerca staff until after completion of the planned 28 day study period.
Golden Syrian male hamsters (weight 82-103 g, 54 days old) were individually housed in HEPA filtered disposable cages and fed Teklad Global Diet 2016 and water ad libitum. After acclimatisation, hamsters were pre-dosed (i.p.) with Mab mixtures or PBS (vehicle control) once a day for each of 4 days: days −3, −2, −1 and 0. Two doses of Mab were investigated: high dose=50 mg/kg each of anti-TcdA and anti-TcdB components and low dose 5 mg/kg each of anti-TcdA and anti-TcdB components.
Hamsters were sensitised (day −1) with 50 mg/kg of Clindamycin phosphate in PBS (s.c.) before being challenged 1 day later (day 0) with 3.4×106 c.f.u. of vegetative cells from strain ATCC43596. […]
Viability checks were performed on animals twice a day, animals found to be in extremis were euthanised and counted as dead. Body weights were determined on each day of dosing, then twice weekly and before euthanising survivors. […] Survival curves were analysed using the P value from the log rank test compared to the Bonferroni corrected threshold of P=0.005. […]

[2] = target: TcdA456 (Clostridioides difficile, UniProt P16154); settings: Purified Mab 5 point titration
Description: (§1) Kinetic constants for the interactions of anti-C. difficile TcdA and TcdB antibodies were determined by surface plasmon resonance conducted on a BIAcore 3000 using CM5 sensor chips. All experiments were performed at 25° C. Affinipure F(ab′)2 fragment goat anti-human IgG, Fc fragment specific (Jackson ImmunoResearch) was immobilised on a CM5 Sensor Chip (GE) via amine coupling chemistry to a capture level of ≈7000 response units (RUs).
(§2) Double referenced background subtracted binding curves were analysed using the BIAevaluation software (version 3.2) following standard procedures. Kinetic parameters were determined from the fitting algorithm

[3] = Estimation of isoelectric point (pI) by capillary IEF; type: physicochemical
Description: Samples were prepared by mixing the following: 30 ul Protein sample at 2 mg/ml, 0.35% Methylcellulose, 4% pH3-10 ampholytes (Pharmalyte), synthetic pI markers (4.65 and 9.77), 1 ul of each stock solution, and HPLC grade water to make up the final volume to 200 ul. The mixture was then analysed using iCE280 IEF analyzer (pre-focusing at 1500V for 1 min followed by focusing at 3000V for 6 mins). The calibrated electropherograms were then integrated using Empower software (from Waters)

[4] = Thermal stability (Tm) measured via Thermofluor assay; type: physicochemical; settings: PBS pH 7.40
Description: This method uses Sypro orange fluorescent dye to monitor the unfolding process of protein domains. The dye binds to exposed hydrophobic regions that become exposed as a consequence of unfolding which results in a change to the emission spectrum.
The sample (5 ul at 1 mg/ml) is mixed with a 5 ul of a stock solution of Sypro orange (30×) and the volume made up to 50 ul with PBS, pH 7.40.
10 ul aliquots of this solution is applied to wells in a 384 well plate (n=4).
The plate is placed in a 7900HT fast real-time PCR system containing a heating device for accurate temperature control. The temperature is increased from 20° C. to 99° C. (Ramp rate of 1.1° C./min). A CCD device simultaneously monitors the fluorescence changes in the wells. An algorithm is used to process intensity data and take into account multiple transitions.

[5] = target: TcdB1234 (Clostridioides difficile, UniProt P18177); settings: Purified Mab 3 point titration
Description: as §1, §2

Molecule | survival [1] | ka [2] | kd [2] | measured pI [3] | Tm(Fab) in PBS [4] | ka [5] | kd [5] | Tm(CH2) [4]
CN[C@H](CC(C)C)C(=O)N[C@H]1C(=O)N[C@@H](CC(N)=O)C(=O)N[C@H]2C(=O)N[C@H]3C(=O)N[C@H](C(=O)N[C@H](C(=O)O)c4cc(O)cc(O)c4-c4cc3ccc4O)[C@H](O)c3ccc(c(Cl)c3)Oc3cc2cc(c3O[C@@H]2O[C@H](CO)[C@@H](O)[C@H](O)[C@H]2O[C@H]2C[C@](C)(N)[C@H](O)[C@H](C)O2)Oc2ccc(cc2Cl)[C@H]1O [vancomycin] | all died on days +10 and +11 | – | – | – | – | – | – | –
CA995: humanised anti-toxin A IgG1; light chain variable SEQ ID NO: 37, heavy SEQ ID NO: 39 (antibody, V domains shown, Antibody variable region for anti-TcdA antibody 995 (heavy chain); Antibody variable region for anti-TcdA antibody 995) VH: EVQLVESGGGLVQPGGSLRLSCTASGFSLSNYDMIWVRQAPGKGLEYIGFINTGGITYYASWAKGRFTISRDSSTVYLQMNSLRAEDTATYFCARVDDYIGAWGAGLWGQGTLVTVS VL: DVVMTQSPSTLSASVGDRVTITCQASQSINNYFSWYQQKPGKAPKLLIYGAANLASGVPSRFKGSGSGTEYTLTISSLQPDDFATYSCQNNYGVHIYGAAFGGGTKVEIK | – | 287000 M⁻¹ s⁻¹ | 3.42e-05 s⁻¹ | 8.5 | 71 °C | – | – | –
1134.g5: anti-toxin B antibody; light chain variable SEQ ID NO: 147, heavy SEQ ID NO: 149 (antibody, V domains shown, Antibody variable region for anti-TcdB antibody 1134 (heavy chain); Antibody variable region for anti-TcdB antibody 1134) VH: EVQLQESGPGLVKPSETLSLTCTVSGFSLNSYTITWVRQPPGKGLEWIAAISGGGSTYFNSALKSRVTISRDTSKSQVSLKLSSVTAADTAVYYCTRPRWYPRSYFDYWGRGTLVTVS VL: DVQLTQSPSFLSASVGDRVTITCKASKSISNHLAWYQEKPGKANKLLIHSGSTLQPGTPSRFSGSGSGTEFTLTISSLQPEDFATYYCQQYDEYPYTFGQGTRLEIK | – | – | – | 9.2 | 76.4 °C | 509000 M⁻¹ s⁻¹ | 2.45e-05 s⁻¹ | 69.2 °C
